# Read-outs that look alike come from different tables or passages of the source. Square brackets hold non-standard residues; d marks the D form. Peptide text beside a SMILES is read from it. * marks the point of attachment. PEG12 = NCCOCCOCCOCCOCCOCCOCCOCCOCCOCCOCCOCCOCCC(=O)O; PEG4 = NCCOCCOCCOCCOCCC(=O)O; HYNIC = NNc1ccc(C(=O)*)cn1; X1 = O=C(/C=C/c1ccccc1)*
# Key:
# [1] = test system: isolated human neutrophils (formyl peptide and tuftsin receptors); assay: Neutrophil binding, saturation assay; conditions: for Kd: TNF-α treated human neutrophils, 25° C., 90 min, saturation assay
# Description: Human tumor necrosis factor-α (TNF-α) was procured from Perpotech, and fMLF was purchased from Sigma. Aliquots of both samples were taken (TNF-α, 10 U/mL, and fMLF, 10 mM) and stored at −20° C. For every assay the solutions were thawed to ambient temperature and freshly diluted with […] (HA) buffer before use. Multiscreen high-throughput screening (HTS) with glass fiber filter (FC) 96-well plates, type C, with […] glass filters were purchased from Millipore. Filtration from 96-well plates was performed under vacuum on a Brandel filtration device. The membranes from each well were collected by punching with the Millipore Multiscreen punching instrument. The radioactivity from ^99mTc-bound ligand was measured with either Minaxi (Packard), Autogamma 5000 series (Packard), or Wallac 1420 Wizard (Perkin-Elmer) γ-counters. Radioactivity was measured for 1 min per sample and was not corrected for decay.
# Human neutrophils were prepared from normal heparinized (10 U/mL) venous blood by a 1-step Ficoll-Hypaque separation procedure (15, 16), yielding approximately 98% neutrophils; greater than 95% viable as determined with trypan blue containing less than 50 pg/mL of endotoxin. After separation, neutrophils were washed with Hank's balanced salt solution with heparin (10 U/mL) 3 times. After the third wash, neutrophils were resuspended in HA buffer, which was Hank's balanced salt solution supplemented with 0.1% human albumin (Bayer Healthcare). Neutrophil experiments were completed in HA buffer.
# Freshly isolated human neutrophils (4×10^6 cells/mL) were treated with TNF-α(10 U/mL, Peprotech) twenty minutes prior to binding studies and transferred to a 96 well plate (Multiscreen® HTS FC by Millipore, Billerica, Mass. 1.2 μm glass filter type C, 50.0 μL, 2.0×10^5 cells/well). […] The bounded radioactivity remaining on the membranes was measured in a gamma counter. Specific binding was calculated as the difference between total binding and nonspecific binding at the highest concentration. […]
# [2] = Partition coefficient (octanol/water); format: physicochemical; conditions: average of three measurements
# Description: Freshly HPLC purified cFLFLF-PEGn-KTKPPR-^99mTc 8 or 9 (˜350 kBq) in 500 μL of water was mixed with 500 μLof octanol in an Eppendorf microcentrifuge tube. The tube was sonicated for […] and then centrifuged at 4,000 rpm for […] (Fisher Scientific Marathon Micro-A). Aliquots (100 μL) of octanol and aqueous layers were carefully separated and radioactivity of samples were counted. Log P is derived as the log of the ratio of radioactivity in octonol to radioactivity in water. The measurement was repeated in triplicate and data presented is the average of three measurements.
# [3] = mouse, in vivo; cited from earlier work
# [4] = mouse, in vivo; cited from earlier work; remark: listed apart in the source
# [5] = Serum stability; format: in vitro ADME; conditions: fetal bovine serum
# Description: Fifty microcuries of the cFLFLF-PEG12-TKPPR-^99mTc was added in to 100 μL of fetal bovine serum (Invitrogen, Grand Island, N.Y.). After incubation at 37° C. for 1, 3, and 6 hrs, aliquots of the mixture was filtered through a […] micro spin filter. The filtrates were analyzed by reverse-phase HPLC with a Bioscan Flow Count Radio-HPLC detector. All of newly formed γ-peaks besides the original cFLFLF-PEG12-TKPPR-^99mTc peak would be considered as degraded products.
# [6] = Blood clearance; format: in vivo; conditions: mouse, whole blood, intravenous, control mice (n=3), tail vein injection, mono-exponential clearance; read-out: elimination half-life for blood clearance (T1/2)
# Description: Blood kinetics of cFLFLF-PEG12-TKPPR-^99mTc was studied in 3 control (non-inflamed) mice. Approximately 50 μL of blood from the contralateral tail vein were collected in capillary tubes at 15, 30, 45, 60, 120, and 180, 360 min after tracer injection (0.37-0.74 MBq). The capillary tubes were placed in a vial that was weighed beforehand and afterward. Activity in each blood sample was measured in a radioisotope calibrated well counter (CRC-15W, Capintec, Inc, NJ), decay corrected back to the time of tracer injection, normalized for injected dose and animal body weight, and expressed as % ID/g of blood.
# [7] = Biodistribution; format: in vivo; conditions: normal mice, 18 hours post injection
# Description: Body distribution of radioactivity was determined in control (n=3) mice 18 h after injection of tracer. After a single blood sample had been taken from the tail vein, mice were euthanized by deep halothane anesthesia. The organs and tissues (ear, heart, lungs, muscle, bone, liver, kidney, spleen, small intestine, and stomach) were collected, rinsed with PBS, wiped with filter paper and weighed in a pre-weighed vial. The radioactivity of each sample was measured in a γ-well counter and decay-corrected back to the time of tracer injection. Biodistribution values are expressed as a percentage of the injected dose (% ID) and normalized by body and organ/tissue mass.
# [8] = test system: PMA-induced ear inflammation (neutrophil accumulation); assay: SPECT/CT imaging in mouse ear inflammation model (PMA); format: in vivo; conditions: 27 hours after PMA challenge, 3 hours post injection
# Description: A female FVB mouse, 5 month old, with left ear inflammatory lesion was used to preliminarily assess the ability of the cFLFLF-PEG12-TKPPR-^99mTc to detect inflammation as a result of neutrophils migration and accumulation. The animal model is similar to that described by Gross et al. (19). Topical application of PMA (2.5 μg in 20 μl DMSO) onto the left earlobe induces acute dermatitis, manifested by local swelling, erythema and infiltration of neutrophils (20, 21). The right ear served as control and received only DMSO (vehicle). The SPECT/CT imaging was correlated with myeloperoxidase (MPO) activity determined by non-invasive bioluminal-bioluminescence imaging (19).
# Twenty-four hours after PMA challenge, 3.7 MBq […] of cFLFLF-PEG12-TKPPR-^99mTc in 200 μl of saline was administered via tail vein. […] All SPECT images were corrected for radioactivity decay but not for gamma ray attenuation.
# Co-registration of SPECT and CT images was performed using ASIPRO software (Siemens Medical Solutions USA, Inc., Knoxyille, Tenn.) and a transformation matrix previously obtained with a dual modality phantom. To characterize the accumulation of the tracer in the ears, volume-of-interest (VOI) analysis was performed to identify the number of detected counts originating in the ears. […] This activity was expressed as percentage of the injected dose per mouse body mass (% ID/g).
molecule,measurement,setting,value
"CC(C)C[C@@H](NC(=O)[C@H](Cc1ccccc1)NC(=O)[C@@H](CC(C)C)NC(=O)[C@H](Cc1ccccc1)NC(=O)/C=C/c1ccccc1)C(=O)N[C@@H](Cc1ccccc1)C(=O)NCCOCCOCCOCCOCCC(=O)N[C@@H](CCCCNC(=O)c1ccc(NN)nc1)C(=O)N[C@H](C(=O)N[C@@H](CCCCN)C(=O)N1CCC[C@H]1C(=O)N1CCC[C@H]1C(=O)N[C@@H](CCCNC(=N)N)C(=O)O)[C@@H](C)O [ligand 8, cFLFLF-PEG4-TKPPR-^99mTc, metal not drawn] (X1-F[dL]F[dL]F[PEG4]K(HYNIC)TKPPR-OH)",Kd,[1],47.8 nM
same,fold less potent than compound 9,"[1]; binding to human neutrophils, ratio of Kd",roughly 3 fold
same,logP,[2],-0.77
cFLFLFK-PEG-^64Cu,circulation time (T1/2),[3],0.917 h
same,blood retaining,[4],0.2 % ID
same,liver uptake,[4],1.5 % ID
"CC(C)C[C@@H](NC(=O)[C@H](Cc1ccccc1)NC(=O)[C@@H](CC(C)C)NC(=O)[C@H](Cc1ccccc1)NC(=O)/C=C/c1ccccc1)C(=O)N[C@@H](Cc1ccccc1)C(=O)NCCOCCOCCOCCOCCOCCOCCOCCOCCOCCOCCOCCOCCC(=O)N[C@@H](CCCCNC(=O)c1ccc(NN)nc1)C(=O)N[C@H](C(=O)N[C@@H](CCCCN)C(=O)N1CCC[C@H]1C(=O)N1CCC[C@H]1C(=O)N[C@@H](CCCNC(=N)N)C(=O)O)[C@@H](C)O [ligand 9, cFLFLF-PEG12-TKPPR-^99mTc, metal not drawn] (X1-F[dL]F[dL]F[PEG12]K(HYNIC)TKPPR-OH)",Kd,[1],15.1 nM
same,logP,[2],-0.89
same,stable in serum,[5]; 37° C.,at least 6 hours
same,fragments of 99mTc labeled peptide by HPLC analysis of serum samples,"[5]; 37° C., 1, 3, and 6 hours",no appreciable fragments
same,half-life,[6],~1.4 h
same,blood retaining,[7],1.2 % ID
same,liver uptake,[7],5.3 % ID
same,accumulation of the tracer in the infected ear (left) vs. control ear,[8],about 3.15 folds

# Source: US20130144035A1, “COMPOSITIONS AND METHODS FOR LEUKOCYTE-TARGETING MULTI-VALENT IMAGING PROBES” (priority 2010, published 2013)
